These results are taken from article PMC11234457, “Antitumor Effect of Anti‐c‐Myc Aptamer‐Based PROTAC for Degradation of the c‐Myc Protein”.

The target of data set [1] is T1, c-Myc (Homo sapiens, UniProt P01106 16-454). As to the kind of experiment: ELISA; 200 nM aptamer, 100 ng c-Myc/well; ELISA: c-Myc coated on microplate (100 mM NaHCO3 pH 9.6, 4 C overnight), 2% BSA in PBST block, binding buffer (composition not in material), RT 30 min. To be noted: protein: commercial; tags: none (untagged); label: 5' biotin (ELISA, pull-down); FAM (flow).
T1 sequence (P01106 16-454): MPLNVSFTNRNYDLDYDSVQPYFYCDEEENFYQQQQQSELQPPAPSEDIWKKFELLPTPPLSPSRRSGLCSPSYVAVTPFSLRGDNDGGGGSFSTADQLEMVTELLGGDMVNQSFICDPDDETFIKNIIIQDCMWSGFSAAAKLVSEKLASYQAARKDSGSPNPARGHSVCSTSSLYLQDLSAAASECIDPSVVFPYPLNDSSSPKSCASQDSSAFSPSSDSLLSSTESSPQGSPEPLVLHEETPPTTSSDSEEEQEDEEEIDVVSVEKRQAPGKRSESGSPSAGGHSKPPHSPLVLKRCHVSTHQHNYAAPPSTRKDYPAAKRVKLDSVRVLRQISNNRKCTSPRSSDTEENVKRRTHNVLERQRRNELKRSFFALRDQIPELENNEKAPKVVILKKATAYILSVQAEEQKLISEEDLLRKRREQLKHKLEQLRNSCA

Data set [2] addresses T1, c-Myc. As to the kind of experiment: ELISA; ELISA: c-Myc coated on microplate (100 mM NaHCO3 pH 9.6, 4 C overnight), 2% BSA in PBST block, binding buffer (composition not in material), RT 30 min. Conditions: protein: commercial; tags: none (untagged). (ELISA stands for enzyme-linked immunosorbent assay.)
The target in data set [3] is T1, c-Myc. As to the kind of experiment: competition ELISA; affinity consistent with ProMyc; ELISA: c-Myc coated on microplate (100 mM NaHCO3 pH 9.6, 4 C overnight), 2% BSA in PBST block, binding buffer (composition not in material), RT 30 min. Conditions: protein: commercial; tags: none (untagged); cloverleaf (predicted).
Data set [4] has as its target T1, c-Myc. As to the kind of experiment: ELISA; comparable to MA9; ELISA: c-Myc coated on microplate (100 mM NaHCO3 pH 9.6, 4 C overnight), 2% BSA in PBST block, binding buffer (composition not in material), RT 30 min. Conditions: protein: commercial; tags: none (untagged); label: 5' biotin; FAM; cy3; cloverleaf (predicted).
For data set [5], the target named is T1, c-Myc. Put plainly: competition ELISA; 200 nM ProMyc, 50 ng c-Myc; ELISA: c-Myc coated on microplate (100 mM NaHCO3 pH 9.6, 4 C overnight), 2% BSA in PBST block, binding buffer (composition not in material), RT 30 min. Conditions: protein: commercial; tags: none (untagged); cloverleaf (predicted).

B1: MA9 (ssDNA)
DNA: CGTTACTTCTGTTCGTTCTCATGGCGAACCCTGTATGGCGCGTAAGTCGGGGAGTAACGTCTGCCTAGTTCCTTGTCTGATCTCCA
For B1, the binding result in data set [1] is on record as “binds”.

B2: MA9C1-mut (structured_DNA)
DNA: CGTTAATTCTGTTCGTTCTCATGGCGAACCCTGTATGACACGTTTGACGGGGAGTAACG
Regarding B2, the binding result in data set [2] was “no binding”.

B3: ProMyc-VHL (structured_DNA)
DNA: CGTTACTTCTGTTCGTTCTCATGGCGAACCCTGTATGGCGCGTAAGTCGGGGAGTAACG
modifications: 5' NH2-C6 linked to (S,R,S)-AHPC-PEG5
For the molecule B3, in data set [3], the binding result is recorded as “binds”.

B4: MA9C1 (structured_DNA)
DNA: CGTTACTTCTGTTCGTTCTCATGGCGAACCCTGTATGGCGCGTAAGTCGGGGAGTAACG
As for B4, the binding result in data set [4] is recorded as “binds”.

B5: ProMyc (structured_DNA)
DNA: CGTTACTTCTGTTCGTTCTCATGGCGAACCCTGTATGGCGCGTAAGTCGGGGAGTAACG
modifications: 5' NH2-C6 linked to pomalidomide-PEG4
With B5, the binding result in data set [5] is reported as “binds”.
